The values below come from patent US20090208522A1.

“And” between values parts separate entries of the source, which are not always exact repeats. Equal values may be shown once.

The target in assay [1] is GDF8 protein (R&D Systems Inc.) (UniProt O14793). Briefly: cell-based or functional assay.
Assay [2] concerns the target Purified CHO-derived FLAG-tagged human GDF8 prohormone (precursor GDF8) (human) (UniProt O14793). The assay can be described thus: indirect ELISA. A general note: ELISA stands for enzyme-linked immunosorbent assay.
The target of assay [3] is TMV-FV7 (DJ5(12)-U1-GPAT coat protein fusion, from pLSB-FV7). The assay can be described thus: DAS ELISA, PVAS 135D capture.
In assay [4] the target is Purified CHO-derived FLAG-tagged human GDF8 prohormone (precursor GDF8) (human) (UniProt O14793). The assay can be described thus: direct ELISA, response per pmole.
For assay [5], the target named is TMV-FV7 (DJ5(12)-U1-GPAT coat protein fusion, from pLSB-FV7). Briefly: indirect ELISA, endpoint dilution.
Assay [6] has as its target TMV U1 coat protein / wild-type TMV U1 virus (tobacco mosaic virus, strain U1) (UniProt P69687). The assay can be described thus: DAS ELISA, virion captured by PVAS-135D.
Assay [7] deals with TMV-FV7 (DJ5(12)-U1-GPAT coat protein fusion, from pLSB-FV7). The assay can be described thus: DAS ELISA, virion captured by PVAS-135D.
Assay [8] has the same target. The assay can be described thus: DAS ELISA, virion captured by PVAS 135D.
The target of assay [9] is TMV U1 coat protein / wild-type TMV U1 virus (tobacco mosaic virus, strain U1) (UniProt P69687). The assay can be described thus: indirect ELISA, antigen coated at 5 ug/mL.
Assay [10] concerns the target TMV U5 coat protein / TMV U5 virus (tobacco mild green mosaic virus (TMV U5)). The assay can be described thus: indirect ELISA, antigen coated at 5 ug/mL.
Assay [11] deals with TMV-FV7 (DJ5(12)-U1-GPAT coat protein fusion, from pLSB-FV7). Briefly: indirect ELISA, antigen coated at 5 ug/mL.
Assay [12] has as its target DJ5 (20) peptide conjugated to BSA (human). Briefly: indirect ELISA, conjugate coated at 5 ug/mL.
For assay [13], the target named is Purified CHO-derived FLAG-tagged human GDF8 prohormone (precursor GDF8) (human) (UniProt O14793). The assay can be described thus: indirect ELISA, proGDF8FLAG coated at 5 ug/mL.
In assay [14] the target is DJ1 peptide (GDF8 active region peptide 267-286) (human). Briefly: ELISA, peptide coated 500 ng/well, antibody diluted 1:20.
Assay [15] deals with DJ2 peptide (GDF8 active region peptide 282-301) (human). The description is as above.
Assay [16] has as its target DJ3 peptide (GDF8 active region peptide 297-316) (human). Described as above.
The target in assay [17] is DJ4 peptide (GDF8 active region peptide 312-331) (human). The description is as above.
Assay [18] concerns the target DJ5 peptide (GDF8 active region peptide 327-346) (human). The description is as above.
The target in assay [19] is DJ6 peptide (GDF8 active region peptide 342-361) (human). Described as above.
In assay [20] the target is DJ7 peptide (GDF8 active region peptide 357-375) (human). The description is as above.
Assay [21] deals with DJ1 peptide (GDF8 active region peptide 267-286) (human). The assay can be described thus: ELISA, peptide coated 500 ng/well, antibody diluted 1:40.
Assay [22] addresses DJ2 peptide (GDF8 active region peptide 282-301) (human). The description is as above.
The target in assay [23] is DJ3 peptide (GDF8 active region peptide 297-316) (human). The assay is described as above.
The target in assay [24] is DJ4 peptide (GDF8 active region peptide 312-331) (human). The assay is described as above.
The target of assay [25] is DJ5 peptide (GDF8 active region peptide 327-346) (human). Described as above.
For assay [26], the target named is DJ6 peptide (GDF8 active region peptide 342-361) (human). The assay is described as above.
For assay [27], the target named is DJ7 peptide (GDF8 active region peptide 357-375) (human). The description is as above.
In assay [28] the target is DJ1 peptide (GDF8 active region peptide 267-286) (human). The assay can be described thus: ELISA, peptide coated 500 ng/well, antibody diluted 1:80.
The target of assay [29] is DJ2 peptide (GDF8 active region peptide 282-301) (human). Described as above.
The target of assay [30] is DJ3 peptide (GDF8 active region peptide 297-316) (human). The assay is described as above.
Assay [31] deals with DJ4 peptide (GDF8 active region peptide 312-331) (human). Described as above.
The target of assay [32] is DJ5 peptide (GDF8 active region peptide 327-346) (human). Described as above.
Assay [33] addresses DJ6 peptide (GDF8 active region peptide 342-361) (human). The description is as above.
In assay [34] the target is DJ7 peptide (GDF8 active region peptide 357-375) (human). The assay is described as above.
For assay [35], the target named is Purified CHO-derived FLAG-tagged human GDF8 prohormone (precursor GDF8) (human) (UniProt O14793). The assay can be described thus: ELISA, prohormone coated 250 ng/well, antibody diluted 1:20.
Assay [36] shares this target. The assay can be described thus: ELISA, prohormone coated 250 ng/well, antibody diluted 1:40.
For assay [37] the target is unchanged. Briefly: ELISA, prohormone coated 250 ng/well, antibody diluted 1:80.

On to “Normal goat IgG (purified from non-immunized goat sera, commercially purchased) (antibody)”, for which, in assay [1], the % Inhibition of GDF8 Activity (in vitro transcriptional activation assay), 250 ug IgG was found to be 7% and the % Inhibition of GDF8 Activity (in vitro transcriptional activation assay, A204 cells, luciferase reporter), 250 ug IgG was found to be 0%.
In assay [2], “Rat monoclonal antibody MAB788 (R&D Systems, anti-mouse GDF8)” returned an endpoint dilution higher than for DJ5(20) BSA (log10) of 2. Further, the % Inhibition of GDF8 Activity (in vitro transcriptional activation assay), 0.1 ug IgG in [1] was 0%. In [1], the % Inhibition of GDF8 Activity (in vitro transcriptional activation assay), 1.8 ug IgG is 0%. In [1], the % Inhibition of GDF8 Activity (in vitro transcriptional activation assay), 3.1 ug IgG was determined as 7%. The % Inhibition of GDF8 Activity (in vitro transcriptional activation assay), 6.3 ug IgG in assay [1] was determined as 17%. The % Inhibition of GDF8 Activity (in vitro transcriptional activation assay), 12.5 ug IgG in [1] worked out at 47%. This substance registered a fold lower endpoint dilution than for the GDF8 prohormone in [3] of 3 fold. Also, the fold higher response than to TMV-FV6 and TMV-FV7 in assay [4] is 2 fold and 3 fold. In [5], this substance came in with a fold higher response than against the U1 coat protein of 3 fold. For the same substance, the endpoint dilution (reciprocal dilution) in assay [6] was 180; in assay [7] it was 14600; in assay [8], 7290; in [9], 1620; in assay [10], < 20; in assay [11], 4860. Further, the figures for the endpoint dilution (reciprocal dilution) in [12] and in [13] were 270 and 21900, respectively. Also, the ELISA reactivity (OD 405/minute x 1000) (OD405/min x 1000) in assay [14] came out at 4; in assay [15], 0; in assay [16] it was 0; in assay [17], 0; in assay [18], 133; in assay [19] it was 0. The ELISA reactivity (OD 405/minute x 1000) (OD405/min x 1000) in [20] was found to be 0; in assay [21], 0; in assay [22], 0; in assay [23], 0; in assay [24], 0; in assay [25], 118. Further, the ELISA reactivity (OD 405/minute x 1000) (OD405/min x 1000) in [26], in assay [27], in [28], in assay [29], in [30] and in [31] was 0 each time. The ELISA reactivity (OD 405/minute x 1000) (OD405/min x 1000) in [32] was found to be 102; in assay [33], 0; in [34] it was 0; in [35], 132; in [36], 127; in assay [37], 132.
